# Data taken from the supplement of paper PMC10065799, “High-throughput profiling of sequence recognition by tyrosine kinases and SH2 domains using bacterial peptide display” (eLife, 2023).
# System: c-Src
# Experiment: phosphorylation enrichment, bacterial display (enrichment ratio); higher = better substrate or ligand; peptides without Tyr show the background
# 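Note: 11-residue human phosphosite peptides and single-mutation variants displayed on the E. coli surface, counted by deep sequencing, each peptide's frequency after selection divided by its frequency in the unselected input library; frequency after pTyr selection over input frequency; kinase dosed for 20-30% of maximal phosphorylation in three min.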
row,Sequence,phosphorylation enrichment
1,SFSGEYGSGGG [ZG16_Y30_G32S_YF],0.512
2,SVTCTYSPAVN [TP53_Y126_L130V],0.662
3,TWQSMYGCDVG [HLA-B_Y123_L119W],0.735
4,CWAVKYLQMVG [AVPR2_Y117_R113W],0.434
5,TKDTFYKQPVF [GBA_Y451_M455V],0.421
6,RESYKYFPSSL [CXXC1_Y218],0.861
7,EAEALYQTKFQ [KRT73_Y325],1.44
8,GLTSTYVGIRK [ROBO1_Y932_A933V],0.562
9,YRKNTYNVKST [SYNE2_Y575_I574T],0.398
10,KEAQVYQAFRL [SUCLG2_Y343_K347R],11.3
11,QEGPEYWDEET [HLA-A_Y83_Q86E],0.796
12,HEVHIYENSGA [ARPC1B_Y35_K37N],0.865
13,DFPMGYPSYLA [TBCK_Y153_I151M],0.416
14,SGEKPYKCSVC [ZNF543_Y283_E287V],0.365
15,LRYDSYSSYCN [SLC20A2_Y433],1.27
16,RDLHTYIMPAH [PNMT_Y256_R254H],0.631
17,CFVFFYSFLLK [PTEN_Y178_R173C_YF],0.519

row,Sequence,phosphorylation enrichment
1,HKNNNYEPSLF [BRCA2_Y57_N60S],0.658
2,LINPKYSVEEE [PCDH19_Y27_L25P],0.608
3,LLVVLNKFRCF [PSEN1_Y154_Y154N_YF],1.05
4,CPPELYALMSD [ZAP70_Y569],0.828
5,VNYQPYRKHKY [TEX37_Y28_D24N],0.537
6,HAEERYGKELV [PSTPIP1_Y53_Q48H],0.569
7,TQNAVYSAANY [DDX5_Y535_G533A],6.96
8,GITVTYTIPKK [UBA5_Y372_A371T],0.4
9,QRHFVYFFSFL [PTEN_Y176_R173H_YF],0.664
10,RAILLYEYVGK [NATD1_Y45_V42I],11.1
11,VDLIVYLWTNP [TK2_Y181_R183W],0.423
12,KKKKQYKGKFL [CASK_Y708_D710G_YF],0.638
13,RLRAAYNLVKR [PFKM_Y103],0.653
14,PGGNIYISPLK [RB1_Y805],0.757
15,GGFTWYCDGKK [PROS1_Y266_C265W_YF],0.299
16,HSVLNYGVCVC [JAK2_Y613_L609S],0.595

# Target: Fes (UniProt P07332)
# Sequence (P07332 whole entry, looked up): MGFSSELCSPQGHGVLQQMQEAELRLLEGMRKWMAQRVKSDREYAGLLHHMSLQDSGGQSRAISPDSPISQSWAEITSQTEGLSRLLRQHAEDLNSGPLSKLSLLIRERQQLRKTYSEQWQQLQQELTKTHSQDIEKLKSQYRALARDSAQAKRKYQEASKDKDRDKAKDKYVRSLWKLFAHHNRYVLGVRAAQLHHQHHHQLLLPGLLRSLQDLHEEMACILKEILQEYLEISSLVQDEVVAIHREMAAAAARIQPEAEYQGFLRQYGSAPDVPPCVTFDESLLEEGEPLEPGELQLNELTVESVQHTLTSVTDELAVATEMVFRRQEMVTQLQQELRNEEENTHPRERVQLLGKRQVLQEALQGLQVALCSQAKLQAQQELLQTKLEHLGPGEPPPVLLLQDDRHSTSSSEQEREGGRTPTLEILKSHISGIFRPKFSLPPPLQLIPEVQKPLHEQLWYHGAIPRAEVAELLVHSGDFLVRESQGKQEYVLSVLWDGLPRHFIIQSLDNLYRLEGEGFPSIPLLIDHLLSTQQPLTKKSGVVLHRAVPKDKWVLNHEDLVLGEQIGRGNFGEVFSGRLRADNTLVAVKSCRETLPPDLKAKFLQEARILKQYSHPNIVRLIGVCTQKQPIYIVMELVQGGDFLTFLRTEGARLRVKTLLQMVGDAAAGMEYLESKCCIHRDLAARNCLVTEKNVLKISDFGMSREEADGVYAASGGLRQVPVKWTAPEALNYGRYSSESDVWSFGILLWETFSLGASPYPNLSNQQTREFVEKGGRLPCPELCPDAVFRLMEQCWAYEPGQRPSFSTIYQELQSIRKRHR
# Experiment: as above
row,Sequence,phosphorylation enrichment
1,SFSGEYGSGGG [ZG16_Y30_G32S_YF],0.658
2,SVTCTYSPAVN [TP53_Y126_L130V],1.71
3,TWQSMYGCDVG [HLA-B_Y123_L119W],1.22
4,CWAVKYLQMVG [AVPR2_Y117_R113W],1.39
5,TKDTFYKQPVF [GBA_Y451_M455V],0.766
6,RESYKYFPSSL [CXXC1_Y218],0.841
7,EAEALYQTKFQ [KRT73_Y325],1.19
8,GLTSTYVGIRK [ROBO1_Y932_A933V],0.775
9,YRKNTYNVKST [SYNE2_Y575_I574T],0.465
10,KEAQVYQAFRL [SUCLG2_Y343_K347R],0.677
11,QEGPEYWDEET [HLA-A_Y83_Q86E],1.88
12,HEVHIYENSGA [ARPC1B_Y35_K37N],2.27
13,DFPMGYPSYLA [TBCK_Y153_I151M],0.751
14,SGEKPYKCSVC [ZNF543_Y283_E287V],0.524
15,LRYDSYSSYCN [SLC20A2_Y433],1.12
16,RDLHTYIMPAH [PNMT_Y256_R254H],1.24
17,CFVFFYSFLLK [PTEN_Y178_R173C_YF],1.03

row,Sequence,phosphorylation enrichment
1,HKNNNYEPSLF [BRCA2_Y57_N60S],1
2,LINPKYSVEEE [PCDH19_Y27_L25P],2.28
3,LLVVLNKFRCF [PSEN1_Y154_Y154N_YF],1.88
4,CPPELYALMSD [ZAP70_Y569],1.31
5,VNYQPYRKHKY [TEX37_Y28_D24N],0.498
6,HAEERYGKELV [PSTPIP1_Y53_Q48H],1.26
7,TQNAVYSAANY [DDX5_Y535_G533A],0.924
8,GITVTYTIPKK [UBA5_Y372_A371T],0.96
9,QRHFVYFFSFL [PTEN_Y176_R173H_YF],1.88
10,RAILLYEYVGK [NATD1_Y45_V42I],7.22
11,VDLIVYLWTNP [TK2_Y181_R183W],1.29
12,KKKKQYKGKFL [CASK_Y708_D710G_YF],0.526
13,RLRAAYNLVKR [PFKM_Y103],1.04
14,PGGNIYISPLK [RB1_Y805],0.58
15,GGFTWYCDGKK [PROS1_Y266_C265W_YF],1.23
16,HSVLNYGVCVC [JAK2_Y613_L609S],1.57

# Target: FGFR1 (UniProt P11362)
# Sequence (P11362 whole entry, looked up): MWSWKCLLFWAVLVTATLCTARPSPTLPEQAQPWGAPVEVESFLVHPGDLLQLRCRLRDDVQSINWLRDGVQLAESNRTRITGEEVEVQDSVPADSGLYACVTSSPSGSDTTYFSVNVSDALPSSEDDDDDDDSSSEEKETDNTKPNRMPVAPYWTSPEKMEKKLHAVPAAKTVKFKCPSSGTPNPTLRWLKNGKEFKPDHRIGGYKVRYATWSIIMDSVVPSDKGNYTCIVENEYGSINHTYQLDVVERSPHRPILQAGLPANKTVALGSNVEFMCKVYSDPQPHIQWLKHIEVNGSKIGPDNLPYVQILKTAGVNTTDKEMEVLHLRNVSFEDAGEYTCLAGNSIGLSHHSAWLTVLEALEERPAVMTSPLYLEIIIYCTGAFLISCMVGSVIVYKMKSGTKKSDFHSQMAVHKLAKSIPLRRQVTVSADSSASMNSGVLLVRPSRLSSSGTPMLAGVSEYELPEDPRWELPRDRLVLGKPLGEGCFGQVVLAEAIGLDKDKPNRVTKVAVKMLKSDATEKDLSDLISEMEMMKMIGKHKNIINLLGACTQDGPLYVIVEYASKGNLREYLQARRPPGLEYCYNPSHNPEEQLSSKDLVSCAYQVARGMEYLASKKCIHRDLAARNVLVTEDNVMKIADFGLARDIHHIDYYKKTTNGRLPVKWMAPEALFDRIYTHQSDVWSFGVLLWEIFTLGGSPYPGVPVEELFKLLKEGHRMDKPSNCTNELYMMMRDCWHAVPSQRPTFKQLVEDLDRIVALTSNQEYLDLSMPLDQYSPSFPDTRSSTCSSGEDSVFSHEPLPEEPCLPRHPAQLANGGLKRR
# Experiment: as above
row,Sequence,phosphorylation enrichment
1,SFSGEYGSGGG [ZG16_Y30_G32S_YF],0.423
2,SVTCTYSPAVN [TP53_Y126_L130V],0.697
3,TWQSMYGCDVG [HLA-B_Y123_L119W],0.533
4,CWAVKYLQMVG [AVPR2_Y117_R113W],0.495
5,TKDTFYKQPVF [GBA_Y451_M455V],0.406
6,RESYKYFPSSL [CXXC1_Y218],0.51
7,EAEALYQTKFQ [KRT73_Y325],0.534
8,GLTSTYVGIRK [ROBO1_Y932_A933V],0.46
9,YRKNTYNVKST [SYNE2_Y575_I574T],0.334
10,KEAQVYQAFRL [SUCLG2_Y343_K347R],0.743
11,QEGPEYWDEET [HLA-A_Y83_Q86E],1.24
12,HEVHIYENSGA [ARPC1B_Y35_K37N],0.703
13,DFPMGYPSYLA [TBCK_Y153_I151M],0.412
14,SGEKPYKCSVC [ZNF543_Y283_E287V],0.342
15,LRYDSYSSYCN [SLC20A2_Y433],0.619
16,RDLHTYIMPAH [PNMT_Y256_R254H],0.982
17,CFVFFYSFLLK [PTEN_Y178_R173C_YF],0.423

row,Sequence,phosphorylation enrichment
1,HKNNNYEPSLF [BRCA2_Y57_N60S],0.793
2,LINPKYSVEEE [PCDH19_Y27_L25P],0.753
3,LLVVLNKFRCF [PSEN1_Y154_Y154N_YF],1.1
4,CPPELYALMSD [ZAP70_Y569],0.905
5,VNYQPYRKHKY [TEX37_Y28_D24N],0.419
6,HAEERYGKELV [PSTPIP1_Y53_Q48H],1.09
7,TQNAVYSAANY [DDX5_Y535_G533A],0.586
8,GITVTYTIPKK [UBA5_Y372_A371T],0.522
9,QRHFVYFFSFL [PTEN_Y176_R173H_YF],1.69
10,RAILLYEYVGK [NATD1_Y45_V42I],4.68
11,VDLIVYLWTNP [TK2_Y181_R183W],0.483
12,KKKKQYKGKFL [CASK_Y708_D710G_YF],0.485
13,RLRAAYNLVKR [PFKM_Y103],0.658
14,PGGNIYISPLK [RB1_Y805],0.545
15,GGFTWYCDGKK [PROS1_Y266_C265W_YF],0.432
16,HSVLNYGVCVC [JAK2_Y613_L609S],0.674

# Target: EPHB2 (UniProt P29323)
# Sequence (P29323 whole entry, looked up): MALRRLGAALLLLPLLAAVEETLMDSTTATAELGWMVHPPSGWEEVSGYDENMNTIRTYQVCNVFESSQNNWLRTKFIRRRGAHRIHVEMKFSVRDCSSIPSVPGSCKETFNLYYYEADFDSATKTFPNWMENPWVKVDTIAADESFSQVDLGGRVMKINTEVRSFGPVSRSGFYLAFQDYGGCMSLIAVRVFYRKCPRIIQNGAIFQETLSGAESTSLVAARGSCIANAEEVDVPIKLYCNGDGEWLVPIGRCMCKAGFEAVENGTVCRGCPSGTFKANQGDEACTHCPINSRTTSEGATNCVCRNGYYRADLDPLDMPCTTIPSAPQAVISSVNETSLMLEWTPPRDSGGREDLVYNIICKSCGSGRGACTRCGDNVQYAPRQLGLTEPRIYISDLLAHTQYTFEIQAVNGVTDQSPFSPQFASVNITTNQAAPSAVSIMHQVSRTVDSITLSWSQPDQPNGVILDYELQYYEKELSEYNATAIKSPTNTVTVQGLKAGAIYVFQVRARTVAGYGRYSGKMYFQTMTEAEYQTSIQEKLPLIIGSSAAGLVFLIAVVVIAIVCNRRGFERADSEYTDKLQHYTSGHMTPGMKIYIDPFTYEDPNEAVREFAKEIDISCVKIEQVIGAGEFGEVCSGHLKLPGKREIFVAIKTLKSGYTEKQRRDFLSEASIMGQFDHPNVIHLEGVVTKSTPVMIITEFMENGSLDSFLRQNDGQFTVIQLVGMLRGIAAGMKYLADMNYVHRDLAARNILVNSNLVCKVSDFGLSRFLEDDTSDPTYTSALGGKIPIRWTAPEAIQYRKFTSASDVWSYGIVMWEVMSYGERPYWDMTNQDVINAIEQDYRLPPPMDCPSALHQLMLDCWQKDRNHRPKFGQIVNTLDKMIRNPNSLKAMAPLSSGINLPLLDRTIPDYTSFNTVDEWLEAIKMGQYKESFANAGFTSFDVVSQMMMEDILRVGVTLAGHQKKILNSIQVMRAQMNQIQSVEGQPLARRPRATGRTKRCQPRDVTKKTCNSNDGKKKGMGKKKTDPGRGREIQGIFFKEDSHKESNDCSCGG
# Experiment: as above
row,Sequence,phosphorylation enrichment
1,SFSGEYGSGGG [ZG16_Y30_G32S_YF],0.454
2,SVTCTYSPAVN [TP53_Y126_L130V],0.746
3,TWQSMYGCDVG [HLA-B_Y123_L119W],0.63
4,CWAVKYLQMVG [AVPR2_Y117_R113W],0.832
5,TKDTFYKQPVF [GBA_Y451_M455V],0.523
6,RESYKYFPSSL [CXXC1_Y218],0.475
7,EAEALYQTKFQ [KRT73_Y325],0.645
8,GLTSTYVGIRK [ROBO1_Y932_A933V],0.506
9,YRKNTYNVKST [SYNE2_Y575_I574T],0.296
10,KEAQVYQAFRL [SUCLG2_Y343_K347R],0.62
11,QEGPEYWDEET [HLA-A_Y83_Q86E],1.25
12,HEVHIYENSGA [ARPC1B_Y35_K37N],1.28
13,DFPMGYPSYLA [TBCK_Y153_I151M],0.453
14,SGEKPYKCSVC [ZNF543_Y283_E287V],0.298
15,LRYDSYSSYCN [SLC20A2_Y433],5.07
16,RDLHTYIMPAH [PNMT_Y256_R254H],0.725
17,CFVFFYSFLLK [PTEN_Y178_R173C_YF],0.72

row,Sequence,phosphorylation enrichment
1,HKNNNYEPSLF [BRCA2_Y57_N60S],0.766
2,LINPKYSVEEE [PCDH19_Y27_L25P],0.986
3,LLVVLNKFRCF [PSEN1_Y154_Y154N_YF],1.11
4,CPPELYALMSD [ZAP70_Y569],1.13
5,VNYQPYRKHKY [TEX37_Y28_D24N],0.444
6,HAEERYGKELV [PSTPIP1_Y53_Q48H],0.806
7,TQNAVYSAANY [DDX5_Y535_G533A],3.99
8,GITVTYTIPKK [UBA5_Y372_A371T],0.557
9,QRHFVYFFSFL [PTEN_Y176_R173H_YF],0.761
10,RAILLYEYVGK [NATD1_Y45_V42I],46.9
11,VDLIVYLWTNP [TK2_Y181_R183W],0.501
12,KKKKQYKGKFL [CASK_Y708_D710G_YF],0.549
13,RLRAAYNLVKR [PFKM_Y103],0.715
14,PGGNIYISPLK [RB1_Y805],0.571
15,GGFTWYCDGKK [PROS1_Y266_C265W_YF],0.605
16,HSVLNYGVCVC [JAK2_Y613_L609S],0.905
